Biological target: ArPEC25-mCherry (Ascochyta rabiei)
Assay: FRET or BRET

FRET efficiency: 2.75
Substance: CaβLIM1a-GFP (natural protein)
